According to patent publication US20030148511A1:

Target: human granzyme B (human) (UniProt P10144)
Assay: cell-based or functional assay

Sequence of UniProt P10144 (P10144 21-247 limits assumed): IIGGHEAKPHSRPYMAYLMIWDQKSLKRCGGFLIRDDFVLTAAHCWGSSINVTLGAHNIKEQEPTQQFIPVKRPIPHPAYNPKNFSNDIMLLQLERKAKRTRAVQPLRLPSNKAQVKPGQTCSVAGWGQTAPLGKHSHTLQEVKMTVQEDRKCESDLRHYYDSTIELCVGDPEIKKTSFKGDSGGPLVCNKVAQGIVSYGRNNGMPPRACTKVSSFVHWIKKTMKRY

Substance: serine protease inhibitor 6 (SPI6), mouse serpin
- apoptosis of Jurkat cells (% of cells YOPRO-1-positive) after perforin and human granzyme B (% of cells YOPRO-1-positive): 27
